These results are taken from patent US20240279356A1 (Xencor, published 2024).

Numbering of substitutions follows the chain as printed.

Test [1] has as its target T1, human MSLN antigen (human, UniProt Q13421 296-580, limits assumed).
T1 construct: Soluble antigen for BLI; also called Mesothelin; MESO
Briefly: MSLN KD of the binding domain (Octet BLI, Example 2B(a)); quoted in Example 3B(a). The text has this:
(§1) Variants of MESO-C were engineered by introducing point substitutions into the variable heavy region (VH) and the variable light region (VL) to generate 11 VH variants and 16 VL variants (sequences for which are depicted in FIG. 18 as H1.1-H1.13 and in FIG. 19 as L1.1-L1.18). An additional 4 VL variants were generated by combining useful point substitutions (sequences for which are depicted in FIG. 19 as L1.19-L1.22). WT and variant variable heavy regions were paired with WT and variant variable light regions to generate variant variable regions (Fvs) which were produced in the context of anti-MSLN×anti-CD3 bispecific antibodies. The bispecific antibodies were screened for MSLN binding affinity using Octet®, a BioLayer Interferometry (BLI)-based method. Experimental steps for Octet® generally include the following: Immobilization (capture of ligand to a biosensor); Association (dipping of ligand-coated biosensors into wells containing the analyte); and Dissociation (returning of biosensors to well containing buffer). In an initial screening, anti-human Fc sensors were used to capture the bispecific mAbs and dipped into human MSLN antigen (one concentration to screen large library). The resulting dissociation constant of illustrative variants (KD), association rate (kₐ), dissociation rate (kd), as well as sensorgram response are depicted in FIG. 20. In further screening of favorite variants identified in the initial screen (and combination variants), bispecific mAbs were dipped into multiple concentrations of human MSLN antigen, data for which are depicted in FIG. 21 (from various screens).
In general terms: In BLI a coated tip is dipped into the sample, and binding shifts an interference pattern.

The target of test [2] is T1, human MSLN antigen. Briefly: Octet BLI on human MSLN antigen (Example 2B(a)); KD quoted in the FIG. 35 legend.
Excerpt: as §1

In test [3] the target is T2, MSLN on OVCAR8 (MSLN^high) and other cancer cell lines (UniProt Q13421 296-598).
T2 construct: whole, on cells; Endogenous surface MSLN; also called MSLN^high OVCAR8 cells; MSLN^low SKOV3 and HT29 cells
T2 sequence (Q13421 other isoform, or with tags, fused parts or gaps limits assumed): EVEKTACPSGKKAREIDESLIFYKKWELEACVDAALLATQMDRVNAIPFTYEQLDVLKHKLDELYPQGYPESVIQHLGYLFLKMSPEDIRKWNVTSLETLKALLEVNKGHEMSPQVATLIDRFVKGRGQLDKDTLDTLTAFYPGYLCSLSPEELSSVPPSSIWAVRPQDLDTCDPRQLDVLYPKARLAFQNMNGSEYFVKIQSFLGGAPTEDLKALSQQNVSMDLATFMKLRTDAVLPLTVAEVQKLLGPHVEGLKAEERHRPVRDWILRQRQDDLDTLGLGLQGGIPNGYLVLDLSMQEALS
Nature of the test: flow cytometry on OVCAR8 cells, detected with A647-labelled anti-human Fc mAb. The protocol: Next, the effect of MSLN binding affinity was investigated. 100,000 OVCAR8 (MSLN^high) cells were treated with the indicated concentrations of the indicated test articles. […] Further, XENP32852 and XENP32853 which differ only in CD3 binding affinity have identical binding to OVCAR8 cells confirming that avid binding is due to the MSLN binding domain.
For orientation: Flow cytometry measures light scatter and fluorescence of single cells or particles in a stream.

The next test deals with T3, cyno MSLN (Macaca fascicularis (cynomolgus)).
T3 construct: soluble antigen for Octet; also called cynomolgus MSLN
Nature of the test: Octet BLI; bsAb on anti-human Fc sensor, cyno MSLN as analyte, one concentration.

For test [4], the target named is T1, human MSLN antigen. Nature of the test: Octet BLI; bsAb on anti-human Fc sensor, human MSLN as analyte, one concentration. In a few lines:
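Biolayer interferometry: human MSLN served as analyte, with association then dissociation in buffer, against bispecific antibodies (MESO-C variant Fvs paired with anti-CD3) bound to anti-human Fc sensors. Kinetic constants (KD, ka, kd) came from single-concentration screening of the large library, or from multiple-concentration runs for favoured and combined variants.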

T1 sequence (Q13421 other isoform, or with tags, fused parts or gaps limits assumed): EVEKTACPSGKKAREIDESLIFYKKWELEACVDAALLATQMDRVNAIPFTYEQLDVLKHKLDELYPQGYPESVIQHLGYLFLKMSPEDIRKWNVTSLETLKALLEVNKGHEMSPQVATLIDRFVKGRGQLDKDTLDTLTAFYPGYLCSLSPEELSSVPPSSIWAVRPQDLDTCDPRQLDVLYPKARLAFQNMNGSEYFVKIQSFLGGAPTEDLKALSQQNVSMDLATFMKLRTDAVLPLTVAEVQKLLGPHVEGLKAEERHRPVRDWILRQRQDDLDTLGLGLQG

B1: MESO-C[MSLN]_H1_L1.9 (Fab, V domains shown)
VH: QVQLVQSGAEVKKPGASVKVSCKASGYTFTSYWMHWVRQAPGQGLEWMGMIHPNSDNTIYYEKFQGRVTMTVDKSISTAYMELSRLRSDDTAVYYCAIIITPVVPKFDYWGQGTLVTVSS
VL: DIVMTQSPDSLAVSLGERATINCKASHDVGTSVAWYQQKPGQSPKLLIYWASTRHTGVPDRFTGSGSGTDFTLTISSLQAEDVAVYFCQQYYSYPLTFGAGTKLEIK
notes: It was tested as the Fab arm(s) of anti-MSLN x anti-CD3 bsAbs
Turning to B1, the Kd with human MSLN antigen [1] came out at 3.9 nM.

B2: MESO-C[MSLN]_H1.3_L1 (Fab, V domains shown)
VH: B1 VH with M50W
VL: B1 VL with Y92S
notes: as for B1
In the case of B2, the Kd with human MSLN antigen [1] is 9.2 nM.

B3: MESO-C[MSLN]_H1.12_L1.9 (Fab, V domains shown)
VH: B1 VH with E62Q
VL: B1 VL
notes: as for B1
In the case of B3, the dissociation constant Kd with human MSLN antigen [1] was 10.2 nM.

B4: MESO-C[MSLN]_H1_L1.5 (Fab, V domains shown)
VH: B1 VH
VL: B1 VL with S32Y, Y92S
notes: as for B1
Turning to B4, the Kd in the test with human MSLN antigen [1] is around 12.8 nM.

B5: XENP32561 (bispecific antibody)
heavy: QVQLVQSGAEVKKPGASVKVSCKASGYTFTSYWMHWVRQAPGQGLEWMGMIHPNSDNTIYYEKFQGRVTMTVDKSISTAYMELSRLRSDDTAVYYCAIIITPVVPKFDYWGQGTLVTVSSASTKGPSVFPLAPSSKSTSGGTAALGCLVKDYFPEPVTVSWNSGALTSGVHTFPAVLQSSGLYSLSSVVTVPSSSLGTQTYICNVNHKPSDTKVDKKVEPKSCDKTHTCPPCPAPPVAGPSVFLFPPKPKDTLMISRTPEVTCVVVDVKHEDPEVKFNWYVDGVEVHNAKTKPREEEYNSTYRVVSVLTVLHQDWLNGKEYKCKVSNKALPAPIEKTISKAKGQPREPQVYTLPPSREEMTKNQVSLTCDVSGFYPSDIAVEWESDGQPENNYKTTPPVLDSDGSFFLYSKLTVDKSRWEQGDVFSCSVMHEALHNHYTQKSLSLSPGK
scFv-Fc: not shown
light: DIVMTQSPDSLAVSLGERATINCKASHSVGTSVAWYQQKPGQSPKLLIYWASTRHTGVPDRFTGSGSGTDFTLTISSLQAEDVAVYFCQQYSSYPLTFGAGTKLEIKRTVAAPSVFIFPPSDEQLKSGTASVVCLLNNFYPREAKVQWKVDNALQSGNSQESVTEQDSKDSTYSLSSTLTLSKADYEKHKVYACEVTHQGLSSPVTKSFNRGEC
notes: 1+1 Fab-scFv-Fc
On to B5, for which the Kd with human MSLN antigen [2] is 0.45 nM. Moreover, the “EC50 (read off the curve)” value in test [3] is around 0.2 µg/mL. Further, in the test with cyno MSLN, binding was put at a Kd of 0.413 nM, the Response was 0.976, the koff turned out to be 0.000248 s⁻¹ and the kon is 600000 M⁻¹ s⁻¹. In addition, in the test with human MSLN antigen [4], the Kd is 0.355 nM, the Response came out at 1.08, the koff turned out to be 0.000215 s⁻¹ and the kon is 606000 M⁻¹ s⁻¹.

B6: XENP31717 (bispecific antibody)
heavy 1: B5 heavy
heavy 2: QVQLVQSGAEVKKPGASVKVSCKASGYTFTSYWMHWVRQAPGQGLEWMGMIHPNSDNTIYYEKFQGRVTMTVDKSISTAYMELSRLRSDDTAVYYCAIIITPVVPKFDYWGQGTLVTVSSASTKGPSVFPLAPSSKSTSGGTAALGCLVKDYFPEPVTVSWNSGALTSGVHTFPAVLQSSGLYSLSSVVTVPSSSLGTQTYICNVNHKPSNTKVDKKVEPKSCGGGGSGGGGSQAVVTQEPSLTVSPGGTVTLTCGSSTGAVTTSNYANWVQQKPGKSPRGLIGGTNKRAPGVPARFSGSLLGGKAALTISGAQPEDEADYYCALWYSNHWVFGGGTKLTVLGKPGSGKPGSGKPGSGKPGSEVQLVESGGGLVQPGGSLRLSCAASGFTFSTYAMNWVRQAPGKGLEWVGRIRSKANNYATYYADSVKGRFTISRDDSKNTLYLQMNSLRAEDTAVYYCVRHGNFGDSYVSWFAYWGQGTLVTVSSGGGGSGGGGSKTHTCPPCPAPPVAGPSVFLFPPKPKDTLMISRTPEVTCVVVDVKHEDPEVKFNWYVDGVEVHNAKTKPREEQYNSTYRVVSVLTVLHQDWLNGKEYKCKVSNKALPAPIEKTISKAKGQPREPQVYTLPPSREQMTKNQVKLTCLVKGFYPSDIAVEWESNGQPENNYKTTPPVLDSDGSFFLYSKLTVDKSRWQQGNVFSCSVMHEALHNHYTQKSLSLSPGK
light: B5 light with S28D
notes: 2+1 Fab2-scFv-Fc anti-MSLN x anti-CD3
On to B6, for which the Kd in the test with human MSLN antigen [2] was 0.28 nM. Further, the “EC50 (read off the curve)” value in test [3] was around 0.04 µg/mL.

B7: XENP32853 (bispecific antibody)
heavy 1: B5 heavy
heavy 2: QVQLVQSGAEVKKPGASVKVSCKASGYTFTSYWMHWVRQAPGQGLEWMGMIHPNSDNTIYYEKFQGRVTMTVDKSISTAYMELSRLRSDDTAVYYCAIIITPVVPKFDYWGQGTLVTVSSASTKGPSVFPLAPSSKSTSGGTAALGCLVKDYFPEPVTVSWNSGALTSGVHTFPAVLQSSGLYSLSSVVTVPSSSLGTQTYICNVNHKPSNTKVDKKVEPKSCGGGGSGGGGSQAVVTQEPSLTVSPGGTVTLTCGSSTGAVTTSNYANWVQQKPGKSPRGLIGGTNKRAPGVPARFSGSLLGGKAALTISGAQPEDEADYYCALWYSNHWVFGGGTKLTVLGKPGSGKPGSGKPGSGKPGSEVQLVESGGGLVQPGGSLRLSCAASGFTFSTYAMNWVRQAPGKGLEWVGRIRSKYNNYATYYADSVKGRFTISRDDSKNTLYLQMNSLRAEDTAVYYCVRHGNFGDEYVSWFAYWGQGTLVTVSSEPKSSDKTHTCPPCPAPPVAGPSVFLFPPKPKDTLMISRTPEVTCVVVDVKHEDPEVKFNWYVDGVEVHNAKTKPREEQYNSTYRVVSVLTVLHQDWLNGKEYKCKVSNKALPAPIEKTISKAKGQPREPQVYTLPPSREQMTKNQVKLTCLVKGFYPSDIAVEWESNGQPENNYKTTPPVLDSDGSFFLYSKLTVDKSRWQQGNVFSCSVMHEALHNHYTQKSLSLSPGK
light: B5 light with S28D, S92Y
notes: 2+1 Fab2-scFv-Fc; copies: 1 + 1 + 2
For B7, the dissociation constant (Kd) in the test with human MSLN antigen [2] turned out to be 3.9 nM. Besides, the concentration giving a half-maximal response (EC50 (read off the curve)) in test [3] is around 0.06 µg/mL.

B8: XENP32751 (bispecific antibody)
heavy: B5 heavy
Fab-scFv-Fc: B6 heavy 2
light: B5 light with S28D, S32Y
notes: as for B7
In the case of B8, the Kd with human MSLN antigen [2] was around 12.8 nM. Further, the concentration for a half-maximal effect (EC50 (read off the curve)) in test [3] is around 0.05 µg/mL.

B9: XENP32745 (bispecific antibody)
heavy 1: B5 heavy
heavy 2: B6 heavy 2
light: B5 light
notes: 2+1 Fab2-scFv-Fc
Regarding B9, in the test with human MSLN antigen [2], the Kd was found to be 0.45 nM. The “EC50 (read off the curve)” value in test [3] was around 0.05 µg/mL.

B10: XENP32562 (bispecific antibody)
heavy: B5 heavy
scFv-Fc: not shown
light: B5 light with S28D, G30L
notes: 1+1 Fab-scFv-Fc
For the molecule B10, the Kd in the test with human MSLN antigen [2] is 0.74 nM. Moreover, the “EC50 (read off the curve)” value in test [3] was around 0.2 µg/mL. In the test with cyno MSLN, this molecule had a Kd of 0.887 nM, a Response of 0.9, a koff of 0.000594 s⁻¹ and a kon of 669000 M⁻¹ s⁻¹. Further, in the test with human MSLN antigen [4], the Kd turned out to be 0.628 nM, the Response was 1.01, the koff stood at 0.000409 s⁻¹ and the kon was determined as 651000 M⁻¹ s⁻¹.

B11: XENP32748 (bispecific antibody)
heavy 1: B5 heavy
heavy 2: B6 heavy 2
light: B5 light with S28D, G30L
notes: 2+1 Fab2-scFv-Fc
On to B11, for which the Kd in the test with human MSLN antigen [2] stood at 0.74 nM. In addition, in test [3], the half-maximal effective concentration (EC50 (read off the curve)) is around 0.04 µg/mL.

B12: XENP32852 (bispecific antibody)
heavy 1: B5 heavy
heavy 2: B6 heavy 2
light: B5 light with S28D, S92Y
notes: as for B7
On to B12, for which, in the test with human MSLN antigen [2], the Kd stood at 3.9 nM. In addition, the half-maximal effective concentration (EC50 (read off the curve)) in test [3] is around 0.06 µg/mL.

As a reminder, the Kd is the concentration at which binding is half-saturated. As a reminder, the EC50 (read off the curve) is the concentration giving half of the maximal effect. The koff is the first-order rate constant of dissociation. The kon is the second-order rate constant of association.
